For two molecules, % Inhibition of Specific Binding results are on record in patent US20220315554A1, “COMPOUNDS COMPRISING A […] LIGAND AND USE THEREOF” (priority 2019, published 2022).

What all share (assay): radioligand displacement, 10 uM compound
Common to all, as to conditions: remark: other sources report otherwise
A general note: In a radioligand displacement assay an active substance lowers the binding of a labelled ligand.

Assay [1] addresses 5-HT2A (h) (human (printed (h))), P28223.
Assay [2] has as its target T1, CB1 (h) (human (printed (h))), P21554.
T1 chain: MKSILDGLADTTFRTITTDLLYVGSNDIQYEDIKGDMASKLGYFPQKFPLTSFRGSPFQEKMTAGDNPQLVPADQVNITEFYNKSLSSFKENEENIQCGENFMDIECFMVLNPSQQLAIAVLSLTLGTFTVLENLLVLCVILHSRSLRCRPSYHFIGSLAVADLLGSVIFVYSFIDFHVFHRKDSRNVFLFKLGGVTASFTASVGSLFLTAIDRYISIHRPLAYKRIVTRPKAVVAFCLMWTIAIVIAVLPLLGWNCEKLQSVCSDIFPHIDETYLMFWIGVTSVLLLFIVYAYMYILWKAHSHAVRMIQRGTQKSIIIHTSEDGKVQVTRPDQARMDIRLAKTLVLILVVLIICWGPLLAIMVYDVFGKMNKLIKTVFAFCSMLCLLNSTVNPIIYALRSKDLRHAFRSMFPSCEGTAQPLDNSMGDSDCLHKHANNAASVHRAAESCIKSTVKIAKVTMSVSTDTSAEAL

The target of assay [3] is T2, D1 (h) (human (printed (h))), P21728.
T2 chain: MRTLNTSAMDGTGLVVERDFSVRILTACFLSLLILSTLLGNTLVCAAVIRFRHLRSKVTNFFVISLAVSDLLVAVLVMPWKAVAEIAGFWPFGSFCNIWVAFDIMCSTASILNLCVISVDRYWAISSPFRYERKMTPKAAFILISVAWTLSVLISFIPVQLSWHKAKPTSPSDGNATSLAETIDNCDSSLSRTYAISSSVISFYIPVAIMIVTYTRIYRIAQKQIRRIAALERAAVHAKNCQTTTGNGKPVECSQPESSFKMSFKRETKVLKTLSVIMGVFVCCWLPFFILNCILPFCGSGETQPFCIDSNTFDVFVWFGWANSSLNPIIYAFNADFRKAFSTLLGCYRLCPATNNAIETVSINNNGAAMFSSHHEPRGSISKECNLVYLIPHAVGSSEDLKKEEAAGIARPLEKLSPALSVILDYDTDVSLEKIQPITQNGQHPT

For assay [4], the target named is T3, GR (h) (human (printed (h))), P04150.
T3 chain: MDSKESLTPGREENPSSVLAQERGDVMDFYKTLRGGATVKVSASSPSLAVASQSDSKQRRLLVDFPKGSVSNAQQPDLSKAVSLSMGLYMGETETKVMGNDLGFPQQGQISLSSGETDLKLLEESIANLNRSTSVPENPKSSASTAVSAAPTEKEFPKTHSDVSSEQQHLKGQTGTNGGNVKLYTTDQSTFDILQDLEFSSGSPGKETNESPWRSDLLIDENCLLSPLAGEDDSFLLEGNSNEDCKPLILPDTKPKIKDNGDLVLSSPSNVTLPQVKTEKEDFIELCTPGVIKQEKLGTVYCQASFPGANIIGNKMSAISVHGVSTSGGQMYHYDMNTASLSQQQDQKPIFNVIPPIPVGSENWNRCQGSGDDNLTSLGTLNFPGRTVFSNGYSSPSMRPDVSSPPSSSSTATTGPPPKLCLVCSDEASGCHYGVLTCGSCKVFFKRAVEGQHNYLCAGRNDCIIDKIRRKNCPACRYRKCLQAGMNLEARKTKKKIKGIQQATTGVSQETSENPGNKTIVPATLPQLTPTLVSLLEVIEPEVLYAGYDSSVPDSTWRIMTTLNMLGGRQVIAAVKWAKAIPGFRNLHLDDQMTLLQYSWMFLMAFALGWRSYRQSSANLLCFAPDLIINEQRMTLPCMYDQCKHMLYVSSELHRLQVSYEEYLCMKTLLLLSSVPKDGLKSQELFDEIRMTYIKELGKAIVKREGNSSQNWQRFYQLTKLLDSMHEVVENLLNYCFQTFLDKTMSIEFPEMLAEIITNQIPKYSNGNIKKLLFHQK

For assay [5], the target named is H2 (h) (human (printed (h))), P25021.
Assay [6] addresses T4, M2 (h) (human (printed (h))), P08172.
T4 chain: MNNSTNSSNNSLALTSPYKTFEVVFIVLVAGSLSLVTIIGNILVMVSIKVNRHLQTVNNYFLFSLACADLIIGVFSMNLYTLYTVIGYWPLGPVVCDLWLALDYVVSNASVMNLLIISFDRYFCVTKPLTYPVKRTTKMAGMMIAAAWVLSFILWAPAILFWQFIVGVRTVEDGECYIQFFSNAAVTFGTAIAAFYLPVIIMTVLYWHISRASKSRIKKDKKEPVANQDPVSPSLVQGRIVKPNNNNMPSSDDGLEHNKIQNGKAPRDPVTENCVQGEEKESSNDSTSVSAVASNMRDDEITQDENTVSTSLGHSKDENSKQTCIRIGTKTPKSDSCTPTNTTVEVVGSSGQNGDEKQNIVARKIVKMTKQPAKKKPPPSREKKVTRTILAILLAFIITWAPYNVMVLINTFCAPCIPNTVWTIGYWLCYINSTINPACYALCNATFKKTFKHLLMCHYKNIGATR

In assay [7] the target is beta 2 (h) (human (printed (h))), P07550.
Assay [8] concerns the target T5, delta (DOP) (h) (human), P41143.
T5 chain: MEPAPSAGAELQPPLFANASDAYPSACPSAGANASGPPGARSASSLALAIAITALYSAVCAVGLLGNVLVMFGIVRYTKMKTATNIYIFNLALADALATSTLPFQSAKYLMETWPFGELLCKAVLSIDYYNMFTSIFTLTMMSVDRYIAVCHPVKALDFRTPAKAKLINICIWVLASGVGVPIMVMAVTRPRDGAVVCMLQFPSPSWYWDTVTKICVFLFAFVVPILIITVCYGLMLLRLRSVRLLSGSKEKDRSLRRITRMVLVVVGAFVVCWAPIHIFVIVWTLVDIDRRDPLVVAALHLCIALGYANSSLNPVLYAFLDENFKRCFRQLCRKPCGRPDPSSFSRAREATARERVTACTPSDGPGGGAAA

Assay [9] concerns the target kappa (h) (KOP) (human (printed (h))), P41145.
The target in assay [10] is mu (MOP) (h) (human), P35372.

Bridge positions count the residues as written; N and C are the ends. * marks the point of attachment. tMeBn(DOTA-AET) = Cys-Cys bridge (thioethers) carrying DOTA-AET; tMeBn(DOTA-PP) = Cys-Cys bridge (thioethers) carrying DOTA-PP; Hexanoyl = CCCCCC(=O)*

mu (MOP) (h) (human), P35372, sequence (P35372 whole entry): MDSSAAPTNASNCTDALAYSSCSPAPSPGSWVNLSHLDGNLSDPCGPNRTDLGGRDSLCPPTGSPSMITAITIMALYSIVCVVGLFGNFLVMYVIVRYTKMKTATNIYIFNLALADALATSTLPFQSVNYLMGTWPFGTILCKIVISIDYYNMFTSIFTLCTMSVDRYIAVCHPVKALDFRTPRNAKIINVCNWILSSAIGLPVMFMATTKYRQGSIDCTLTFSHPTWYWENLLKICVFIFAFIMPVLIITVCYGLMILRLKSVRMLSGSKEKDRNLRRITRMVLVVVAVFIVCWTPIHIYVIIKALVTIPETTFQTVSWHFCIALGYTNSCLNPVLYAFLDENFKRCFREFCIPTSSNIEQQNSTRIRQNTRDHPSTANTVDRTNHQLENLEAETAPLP
kappa (h) (KOP) (human (printed (h))), P41145, sequence (P41145 whole entry): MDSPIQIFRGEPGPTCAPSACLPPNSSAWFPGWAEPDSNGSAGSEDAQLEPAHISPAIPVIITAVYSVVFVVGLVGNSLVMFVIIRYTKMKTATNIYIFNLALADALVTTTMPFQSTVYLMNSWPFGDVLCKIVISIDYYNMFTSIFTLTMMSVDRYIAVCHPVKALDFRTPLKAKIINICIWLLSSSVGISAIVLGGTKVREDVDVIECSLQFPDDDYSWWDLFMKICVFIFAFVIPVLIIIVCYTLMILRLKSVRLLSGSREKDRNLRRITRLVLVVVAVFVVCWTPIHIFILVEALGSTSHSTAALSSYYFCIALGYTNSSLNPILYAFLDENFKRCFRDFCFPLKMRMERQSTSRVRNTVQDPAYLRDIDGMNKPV
5-HT2A (h) (human (printed (h))), P28223, sequence (P28223 whole entry): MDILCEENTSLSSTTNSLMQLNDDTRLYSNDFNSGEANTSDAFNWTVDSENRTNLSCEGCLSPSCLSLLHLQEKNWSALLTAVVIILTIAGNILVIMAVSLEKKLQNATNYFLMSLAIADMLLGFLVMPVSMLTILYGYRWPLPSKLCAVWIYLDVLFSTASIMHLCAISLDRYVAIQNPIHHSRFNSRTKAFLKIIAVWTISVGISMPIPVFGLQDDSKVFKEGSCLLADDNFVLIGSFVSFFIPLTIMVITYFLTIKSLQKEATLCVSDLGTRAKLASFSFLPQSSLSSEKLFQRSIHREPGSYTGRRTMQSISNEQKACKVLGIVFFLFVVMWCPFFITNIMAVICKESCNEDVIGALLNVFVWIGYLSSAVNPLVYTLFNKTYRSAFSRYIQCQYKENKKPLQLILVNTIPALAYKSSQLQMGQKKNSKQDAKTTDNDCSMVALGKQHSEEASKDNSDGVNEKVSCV
H2 (h) (human (printed (h))), P25021, sequence (P25021 whole entry): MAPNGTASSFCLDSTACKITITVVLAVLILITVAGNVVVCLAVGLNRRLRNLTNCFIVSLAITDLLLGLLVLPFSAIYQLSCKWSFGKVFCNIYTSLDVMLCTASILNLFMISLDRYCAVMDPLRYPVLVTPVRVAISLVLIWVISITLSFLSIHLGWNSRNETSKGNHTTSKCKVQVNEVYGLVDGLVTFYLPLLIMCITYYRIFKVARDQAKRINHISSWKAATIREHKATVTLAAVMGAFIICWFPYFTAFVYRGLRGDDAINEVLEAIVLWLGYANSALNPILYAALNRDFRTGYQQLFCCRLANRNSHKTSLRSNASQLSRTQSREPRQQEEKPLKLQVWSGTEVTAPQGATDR

B1: Hex-[Cys(tMeBn(DOTA-AET))-Pro-Pro-Thr-Gln-Phe-Cys]-OH (3BP-3554) (peptide)
peptide: Hexanoyl-CPPTQFC-OH
modifications: linker 1-7 via tMeBn(DOTA-AET)
With B1, the % Inhibition of Specific Binding in [1] was 4%; in assay [2], -7%; in assay [3], 7%; in assay [4], 0%; in [5], -16%; in assay [6], 7%. Besides, the % Inhibition of Specific Binding in [7] is 8%; in assay [8] it was 1%; in assay [9] it was 10%; in [10], -10%.

B2: Hex-[Cys(tMeBn(DOTA-PP))-Pro-Pro-Thr-Gln-Phe-Cys]-Asp-NH2 (3BP-3407) (peptide)
peptide: Hexanoyl-CPPTQFCD-NH2
modifications: linker 1-7 via tMeBn(DOTA-PP)
B2: the % Inhibition of Specific Binding was -2% in [1]; 5% in assay [2]; 0% in assay [3]; -2% in [4]; -5% in assay [5]; -4% in assay [6]. Besides, the % Inhibition of Specific Binding in assay [7] is 4%; in assay [8], 0%; in assay [9] it was 7%; in assay [10] it was 2%.
